Assay results published in publication PMC8583203, “DisA Restrains the Processing and Cleavage of Reversed Replication Forks by the RuvAB-RecU Resolvasome”.

Legend:
[1] = molecular target: T1, DisA (Bacillus subtilis, UniProt P37573 1-360); experiment: EMSA; details: 10 mM Mg2+; 0.2% glutaraldehyde; 50 mM Tris-HCl pH 7.5, 50 mM NaCl, 1 mM DTT, 0.05 mg/mL BSA, 5% glycerol, 1 or 10 mM MgCl2 or 5 mM EDTA, 15 min 37 C, 0.2 nM DNA; 0.2% glutaraldehyde before 6% …
T1 sequence: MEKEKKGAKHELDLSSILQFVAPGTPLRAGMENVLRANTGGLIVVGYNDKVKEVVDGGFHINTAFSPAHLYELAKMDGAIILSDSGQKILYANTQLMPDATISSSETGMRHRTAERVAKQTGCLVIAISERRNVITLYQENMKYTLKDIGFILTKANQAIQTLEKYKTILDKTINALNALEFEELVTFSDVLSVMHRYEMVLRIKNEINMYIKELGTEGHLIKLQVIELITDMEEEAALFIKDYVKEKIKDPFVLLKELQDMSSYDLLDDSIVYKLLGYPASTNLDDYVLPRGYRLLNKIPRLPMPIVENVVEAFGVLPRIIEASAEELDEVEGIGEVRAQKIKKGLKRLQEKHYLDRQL

[2] = molecular target: T1, DisA; experiment: EMSA; 10 mM Mg2+; 0.2% glutaraldehyde; 50 mM Tris-HCl pH 7.5, 50 mM NaCl, 1 mM DTT, 0.05 mg/mL BSA, 5% glycerol, 1 or 10 mM MgCl2 or 5 mM EDTA, 15 min 37 C, 0.2 nM DNA; 0.2% glutaraldehyde before 6%; details: protein: recombinant, chain copies: 8, label: 32P (5' by gamma-32P)
[3] = molecular target: T2, RecU (Bacillus subtilis, UniProt P39792 1-206); experiment: EMSA; 1 mM Mg2+; 50 mM Tris-HCl pH 7.5, 50 mM NaCl, 1 mM DTT, 0.05 mg/mL BSA, 5% glycerol, 1 or 10 mM MgCl2 or 5 mM EDTA, 15 min 37 C, 0.2 nM DNA; 0.2% glutaraldehyde before 6%; details: protein: recombinant; chain copies: 2; label: 32P (5' by gamma-32P); four-way junction
T2 sequence: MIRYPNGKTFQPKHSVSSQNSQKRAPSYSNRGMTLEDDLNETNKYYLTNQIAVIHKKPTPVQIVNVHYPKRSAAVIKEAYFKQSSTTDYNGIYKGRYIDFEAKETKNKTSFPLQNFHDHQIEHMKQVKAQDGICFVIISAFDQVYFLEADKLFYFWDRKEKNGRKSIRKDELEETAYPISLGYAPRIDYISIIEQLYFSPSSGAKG

[4] = molecular target: T3, RuvA (Bacillus subtilis, UniProt O05392 1-201); experiment: as above; details: protein: recombinant; chain copies: 8; label: 32P (5' by gamma-32P); four-way junction
T3 sequence: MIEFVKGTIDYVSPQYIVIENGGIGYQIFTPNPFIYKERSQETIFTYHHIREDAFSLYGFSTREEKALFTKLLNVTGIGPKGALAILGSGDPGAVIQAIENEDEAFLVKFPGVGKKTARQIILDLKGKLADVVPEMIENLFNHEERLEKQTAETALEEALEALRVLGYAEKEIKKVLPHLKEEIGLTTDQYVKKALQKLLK

[5] = molecular target: T1, DisA; experiment: EMSA; 10 mM Mg2+; 500 uM ATP; 50 mM Tris-HCl pH 7.5, 50 mM NaCl, 1 mM DTT, 0.05 mg/mL BSA, 5% glycerol, 1 or 10 mM MgCl2 or 5 mM EDTA, 15 min 37 C, 0.2 nM DNA; 0.2% glutaraldehyde before 6%; details: protein: recombinant; chain copies: 8; label: 32P (5' by gamma-32P); four-way junction
[6] = molecular target: T4, DisA;RuvA (Bacillus subtilis;Bacillus subtilis, UniProt P37573;O05392 1-360;1-201, |); experiment: EMSA; 1 mM Mg2+; new R+A complex; 50 mM Tris-HCl pH 7.5, 50 mM NaCl, 1 mM DTT, 0.05 mg/mL BSA, 5% glycerol, 1 or 10 mM MgCl2 or 5 mM EDTA, 15 min 37 C, 0.2 nM DNA; 0.2% glutaraldehyde before 6%; details: protein: recombinant;recombinant; tags: ;; chain copies: 8;8; label: 32P (5' by gamma-32P); four-way junction
T4 sequence 1: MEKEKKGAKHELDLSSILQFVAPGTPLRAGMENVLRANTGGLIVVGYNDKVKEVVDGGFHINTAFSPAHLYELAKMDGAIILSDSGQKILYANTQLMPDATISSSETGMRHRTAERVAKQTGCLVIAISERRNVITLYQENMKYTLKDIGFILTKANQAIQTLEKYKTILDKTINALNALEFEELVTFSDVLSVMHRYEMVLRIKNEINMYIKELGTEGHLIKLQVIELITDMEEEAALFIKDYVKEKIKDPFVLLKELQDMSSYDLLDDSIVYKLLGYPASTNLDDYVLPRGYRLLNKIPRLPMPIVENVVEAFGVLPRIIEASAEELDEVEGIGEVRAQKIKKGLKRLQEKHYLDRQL
T4 sequence 2: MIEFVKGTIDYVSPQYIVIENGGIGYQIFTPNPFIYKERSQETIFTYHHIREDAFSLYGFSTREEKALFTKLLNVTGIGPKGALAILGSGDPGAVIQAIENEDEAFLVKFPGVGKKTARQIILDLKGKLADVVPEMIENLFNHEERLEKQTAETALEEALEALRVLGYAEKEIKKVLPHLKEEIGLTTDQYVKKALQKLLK

[7] = molecular target: T5, RuvA;RuvB (Bacillus subtilis;Bacillus subtilis, UniProt O05392;O32055 1-201;1-334, |); experiment: DNase I footprinting; 10 mM Mg2+; 5 mM ATPgS; ~40-nt footprint; 50 mM Tris-HCl pH 7.5, 50 mM NaCl, 1 mM DTT, 0.05 mg/mL BSA, 5% glycerol, 1 or 10 mM MgCl2 or 5 mM EDTA, 15 min 37 C, 0.2 nM DNA; 0.2% glutaraldehyde before 6%; details: protein: recombinant;native; tags: ;; chain copies: 8;12; label: 32P (5' by gamma-32P); four-way junction
T5 sequence 1: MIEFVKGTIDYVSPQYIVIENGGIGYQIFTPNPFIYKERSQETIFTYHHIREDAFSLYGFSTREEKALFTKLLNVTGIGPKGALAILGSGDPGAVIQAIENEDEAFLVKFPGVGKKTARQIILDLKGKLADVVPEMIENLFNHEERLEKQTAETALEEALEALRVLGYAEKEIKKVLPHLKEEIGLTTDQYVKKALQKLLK
T5 sequence 2: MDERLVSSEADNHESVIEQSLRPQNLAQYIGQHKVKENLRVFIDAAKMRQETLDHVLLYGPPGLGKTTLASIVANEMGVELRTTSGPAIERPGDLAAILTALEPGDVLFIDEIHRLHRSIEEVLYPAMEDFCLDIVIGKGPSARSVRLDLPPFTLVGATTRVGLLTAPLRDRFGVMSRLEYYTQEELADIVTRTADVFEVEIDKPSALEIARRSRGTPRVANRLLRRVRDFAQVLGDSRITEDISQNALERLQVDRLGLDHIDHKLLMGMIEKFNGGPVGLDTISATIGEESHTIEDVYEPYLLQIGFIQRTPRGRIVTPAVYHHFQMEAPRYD

[8] = molecular target: T6, DisA;RuvA;RuvB (Bacillus subtilis;Bacillus …, UniProt P37573;O05392;O32055 1-360;1-201;1-334, ||); experiment: DNase I footprinting; 10 mM Mg2+; 5 mM ATPgS; either order of addition; 50 mM Tris-HCl pH 7.5, 50 mM NaCl, 1 mM DTT, 0.05 mg/mL BSA, 5% glycerol, 1 or 10 mM MgCl2 or 5 mM EDTA, 15 min 37 C, 0.2 nM DNA; 0.2% glutaraldehyde before 6%; details: protein: recombinant;recombinant;native; tags: ;;; label: 32P (5' by gamma-32P); four-way junction
T6 sequence 1: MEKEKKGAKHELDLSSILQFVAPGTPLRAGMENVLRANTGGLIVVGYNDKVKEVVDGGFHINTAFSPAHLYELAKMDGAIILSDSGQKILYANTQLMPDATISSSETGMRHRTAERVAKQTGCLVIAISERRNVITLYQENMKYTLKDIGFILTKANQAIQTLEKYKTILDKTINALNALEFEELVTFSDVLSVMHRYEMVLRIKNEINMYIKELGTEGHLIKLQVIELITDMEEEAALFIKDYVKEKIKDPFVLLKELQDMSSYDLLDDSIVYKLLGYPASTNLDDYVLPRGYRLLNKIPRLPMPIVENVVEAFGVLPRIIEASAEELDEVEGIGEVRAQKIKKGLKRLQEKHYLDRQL
T6 sequence 2: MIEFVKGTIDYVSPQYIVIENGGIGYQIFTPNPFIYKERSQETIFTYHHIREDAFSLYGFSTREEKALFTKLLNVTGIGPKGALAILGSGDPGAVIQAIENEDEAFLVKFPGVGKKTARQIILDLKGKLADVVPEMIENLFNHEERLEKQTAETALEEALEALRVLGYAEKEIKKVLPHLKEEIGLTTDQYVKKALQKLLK
T6 sequence 3: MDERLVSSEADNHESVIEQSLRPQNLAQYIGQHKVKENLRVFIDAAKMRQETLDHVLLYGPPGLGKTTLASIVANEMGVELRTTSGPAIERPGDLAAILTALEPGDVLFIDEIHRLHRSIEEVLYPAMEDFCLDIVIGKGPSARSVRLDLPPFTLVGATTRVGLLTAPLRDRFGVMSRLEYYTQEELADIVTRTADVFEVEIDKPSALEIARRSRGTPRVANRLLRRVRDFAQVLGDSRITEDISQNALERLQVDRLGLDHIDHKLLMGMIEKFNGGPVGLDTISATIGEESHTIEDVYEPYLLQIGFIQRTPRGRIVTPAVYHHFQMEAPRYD

[9] = molecular target: T7, DisA;RecU (Bacillus subtilis;Bacillus subtilis, UniProt P37573;P39792 1-360;1-206, |); experiment: DNase I footprinting; preformed at 1 mM Mg2+, then 10 mM Mg2+; coexistence judged likely; 50 mM Tris-HCl pH 7.5, 50 mM NaCl, 1 mM DTT, 0.05 mg/mL BSA, 5% glycerol, 1 or 10 mM MgCl2 or 5 mM EDTA, 15 min 37 C, 0.2 nM DNA; 0.2% glutaraldehyde before 6%; details: protein: recombinant;recombinant; tags: ;; chain copies: 8;2; label: 32P (5' by gamma-32P); four-way junction
T7 sequence 1: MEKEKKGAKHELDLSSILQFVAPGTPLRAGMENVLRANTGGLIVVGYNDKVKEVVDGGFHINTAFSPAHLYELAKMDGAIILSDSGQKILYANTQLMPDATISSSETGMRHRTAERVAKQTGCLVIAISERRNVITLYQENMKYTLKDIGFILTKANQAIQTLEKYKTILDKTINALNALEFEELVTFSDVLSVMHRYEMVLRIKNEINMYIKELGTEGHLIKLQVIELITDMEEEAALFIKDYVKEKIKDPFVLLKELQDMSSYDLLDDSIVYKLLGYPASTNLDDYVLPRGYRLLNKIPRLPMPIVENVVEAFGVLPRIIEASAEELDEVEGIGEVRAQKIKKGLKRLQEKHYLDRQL
T7 sequence 2: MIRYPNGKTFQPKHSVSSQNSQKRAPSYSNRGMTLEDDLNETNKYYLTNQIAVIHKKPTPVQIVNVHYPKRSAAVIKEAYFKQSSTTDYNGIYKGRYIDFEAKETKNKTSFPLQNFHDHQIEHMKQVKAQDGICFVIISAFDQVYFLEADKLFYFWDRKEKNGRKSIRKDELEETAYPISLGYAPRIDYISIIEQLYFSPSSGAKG

Molecule ssDNA (oligonucleotide not stated) has a Kd [1] of 3.3 nM.

B1: dsDNA (80-bp) (dsDNA)
DNA 1: CGCAGCGACAGGAACCTCGAGGAATTCAACCACCGCTCAACTCAACTGCAGTCTGACTCGAGGTTCCTGTCGCTTGCG
DNA 2: CGCAAGCGACAGGAACCTCGAGTCTAGACTGCAGTTGAGTTGAGCGGTGGTTGAATTCCTCGAGTTCCTGTCGCTTGCG
B1 was tested, and the Kd ([2]; duplex, printed strands not exactly complementary (small deletions/insertion)) was 2.6 ± 0.3 nM.

B2: HJ-J3 DNA (fixed Holliday junction) (structured_DNA)
DNA 1: CGCAAGCGACAGGAACCTCGAGAAGCTTCCGGTAGCAGCCTGAGCGGTGGTTGAATTCCTCGAGGTTCCTGTCGCTTGCG
DNA 2: CGCAGCGACAGGAACCTCGAGGAATTCAACCACCGCTCAACTCAACTGCAGTCTGACTCGAGGTTCCTGTCGCTTGCG
DNA 3: CGCAAGCGACAGGAACCTCGAGTCTAGACTGCAGTTGAGTCCTTGCTAGGACGGATCCCTCAGGTTCCTGTCGCTTGCG
DNA 4: CGCAAGCGACAGGAACCTCGAGGGATCCGTCCTAGCAAGGGGCTGCTACCGGAAGCTTCTCGAGGTTCCTGTCGCTTGCG
B2 gave a Kd [3] of 0.6 ± 0.2 nM, a Kd [4] of 10 ± 2 nM and a Kd [5] of 5.5 ± 0.3 nM. The binding result [6] was “binds”, the Kd ([2]; four-way junction) was 3 ± 0.5 nM and the binding result [7] was “binds”. B2: binds [8]; binds [9].

B3: flayed DNA (170/173) (structured_DNA)
DNA 1: AGACGCTGCCGAATTCTGGCTTGGATCTGATGCTGTCTAGAGGCCTCCACTATGAAATCG
DNA 2: AGCTCATAGATCGATAGTCTCTAGACAGCATCAGATCCAAGCCAGAATTCGGCAGCGTCT
Work on B3 yielded a Kd ([2]; fork 1:2, unpaired 3' end of 170 and 5' end of 173) of 3.2 ± 0.2 nM.
